Laboratory results as given in paper PMC3097136.

Columns and labels:
[1] = target: T1, COUP-TFI (Nr2f1) (Mus musculus, UniProt Q60632 1-422); experiment: competition
T1 sequence: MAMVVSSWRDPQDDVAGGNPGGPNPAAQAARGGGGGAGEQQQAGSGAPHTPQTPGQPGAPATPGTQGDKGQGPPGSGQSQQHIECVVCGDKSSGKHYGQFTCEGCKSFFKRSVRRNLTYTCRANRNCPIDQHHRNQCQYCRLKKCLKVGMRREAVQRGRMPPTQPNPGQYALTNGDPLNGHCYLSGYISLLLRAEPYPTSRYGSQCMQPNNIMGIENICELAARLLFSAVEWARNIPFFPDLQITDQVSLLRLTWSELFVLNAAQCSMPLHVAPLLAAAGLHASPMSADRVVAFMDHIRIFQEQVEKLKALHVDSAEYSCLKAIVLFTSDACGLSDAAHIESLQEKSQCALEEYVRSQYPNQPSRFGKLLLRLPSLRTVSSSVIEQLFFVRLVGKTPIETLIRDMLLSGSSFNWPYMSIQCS

[2] = target: tESR1 (estrogen receptor alpha DNA-binding domain) (Homo sapiens, UniProt P03372 185-250); experiment: EMSA
Chain of tESR1 (estrogen receptor alpha DNA-binding domain) (P03372 185-250): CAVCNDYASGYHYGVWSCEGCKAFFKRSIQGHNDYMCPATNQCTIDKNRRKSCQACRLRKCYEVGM

[3] = target: T2, COUP-TFII (Nr2f2) (Mus musculus, UniProt P43135 1-414); experiment: EMSA
T2 sequence: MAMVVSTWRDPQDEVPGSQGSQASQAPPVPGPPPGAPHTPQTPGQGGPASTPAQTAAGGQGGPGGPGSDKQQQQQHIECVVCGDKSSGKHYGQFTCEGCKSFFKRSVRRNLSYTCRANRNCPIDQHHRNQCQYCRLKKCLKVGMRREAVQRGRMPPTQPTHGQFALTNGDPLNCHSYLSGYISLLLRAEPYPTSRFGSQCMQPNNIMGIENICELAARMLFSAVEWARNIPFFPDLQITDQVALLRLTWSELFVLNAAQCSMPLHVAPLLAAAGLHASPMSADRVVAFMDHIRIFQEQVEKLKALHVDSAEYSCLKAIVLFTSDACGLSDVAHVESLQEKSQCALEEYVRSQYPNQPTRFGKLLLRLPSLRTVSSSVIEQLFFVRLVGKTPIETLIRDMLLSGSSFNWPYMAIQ

[4] = target: T1, COUP-TFI (Nr2f1); experiment: EMSA
[5] = target: T1, COUP-TFI (Nr2f1); experiment: competition; remark: listed apart in the source

B1: cold probe A* (dsDNA)
DNA 1: ATCCAAGCTCGAATTGAAATCTCTTT
DNA 2: AAAGAGATTTCAATTCGAGCTTGGAT
Q: Does B1 bind [1]?
A: no binding

B2: probe A (nPE2 NRBE) (dsDNA)
DNA 1: ATCCAAAGGTCAATTGAAATCTCTTT
DNA 2: AAAGAGATTTCAATTGACCTTTGGAT
Q: Which results are given for B2?
A: binding result [2]: binds; binding result [3]: binds; binding result [4]: binds

B3: probe A* (mutated NRBE) (dsDNA)
DNA 1: ATCCAAGCTCGAATTGAAATCTCTTT
DNA 2: AAAGAGATTTCAATTCGAGCTTGGAT
Q: Does B3 bind [2]?
A: no binding

Q: Does B3 bind [4]?
A: no binding

B4: cold probe A (dsDNA)
DNA 1: ATCCAAAGGTCAATTGAAATCTCTTT
DNA 2: AAAGAGATTTCAATTGACCTTTGGAT
Q: Does B4 bind [5]?
A: binds
